Patent publication US20200255483A1

Assays:
[1] = molecular target: RAS proteins (endogenous, in cells); experiment: cell-based or functional assay
[2] = molecular target: diphtheria toxin receptor (heparin-binding epidermal growth factor-like growth factor, HB-EGF) on Vero cells (UniProt Q09118); experiment: cell-based or functional assay

Substance | EC50 of loss of RAS proteins in HeLa cells (immunoblot) [1] | potency of RAS loss in HeLa cells against RRSP-dta-dtB [1] | EC50 of loss of total RAS proteins in HeLa cells after 24 h (immunoblot with anti-RAS antibody) [1] | EC50 of inhibition of protein synthesis (3H-leucine incorporation) in Vero cells, in the presence of 1 nM nontoxic DT [2] | EC50 of inhibition of protein synthesis (3H-leucine incorporation) in Vero cells, without competitor [2]
RRSP-APD-Δdta-dtB (enzyme) | 1 pM | 300 fold | – | – | –
RRSP-dta-dtB (enzyme) | – | – | 250 pM | – | –
RRSP-Δdta-dtB (enzyme) | 1 pM | 300 fold | – | – | –
dtA-eGFP-dta-dtB | – | – | – | 215 pM | 3.8 pM
